{
  "source": "paper doi:10.1101/2023.01.19.524411",
  "about": "(bioRxiv, 2023)",
  "proteins": {"B1": {"name": "flag-tagged STING (stimulator of interferon genes) (natural protein, UniProt Q3TBT3 1-378, looked up)", "chain": "MPYSNLHPAIPRPRGHRSKYVALIFLVASLMILWVAKDPPNHTLKYLALHLASHELGLLLKNLCCLAEELCHVQSRYQGSYWKAVRACLGCPIHCMAMILLSSYFYFLQNTADIYLSWMFGLLVLYKSLSMLLGLQSLTPAEVSAVCEEKKLNVAHGLAWSYYIGYLRLILPGLQARIRMFNQLHNNMLSGAGSRRLYILFPLDCGVPDNLSVVDPNIRFRDMLPQQNIDRAGIKNRVYSNSVYEILENGQPAGVCILEYATPLQTLFAMSQDAKAGFSREDRLEQAKLFCRTLEEILEDVPESRNNCRLIVYQEPTDGNSFSLSQEVLRHIRQEEKEEVTMNAPMTSVAPPPSVLSQEPRLLISGMDQPLPLRTDLI"}},
  "molecular_target": "the molecule itself",
  "test": "native gel or EMSA",
  "data": [
    {"protein": "B1", "values": [
      {"measurement": "stoichiometry N", "value": 2}
    ]}
  ]
}
